Tested on: S. aureus MRSA-M2
Assay: murine tibial implant model of S. aureus infection
Format: in vivo
Settings: C57BL/6 mice, tibiae CFU at 21 days post-challenge; 12.5 μg per antigen IP at 28 and 14 days prior to challenge
Source text: Mice. Inbred C57BL/6 (6-8 weeks old) were purchased from Jackson Laboratories (Bar Harbor, Me.). Mice were maintained under micro-isolator conditions in the animal facility at the University of Maryland Dental School (Baltimore, Md.), in accordance with protocols reviewed and approved by the Institutional Animal Care and Use Committee (IACUC).
Bacterial strain and preparation of infectious inocula. […] Cells were centrifuged, rinsed with PBS, counted via a Petroff Hausser counter, and diluted to 1×10^6 CFU/ml. […]
Bone Cultures. […] In addition, non-vaccinated mice (alum alone) and mice vaccinated with the quadrivalent vaccine, the single additional antigen SA0119, or all antigens combined were euthanized at 21 days post infection and tibial colony-forming units (CFUs) were determined as described above. Dissemination of the S. aureus infection was monitored by homogenizing kidneys and plating the homogenates as described above.
Statistical Analysis. Mean and SD were calculated and analyzed using Student's t-test with a P value of <0.05 to determine statistical significance. Experiments determining the percentage of mice still infected after vancomycin or PBS treatment were analyzed using Fishers Exact test with a p value of <0.05 for statistical significance. […]

B1: SACOL0119 vaccine: planktonic-specific monovalent vaccine; S. aureus polypeptide SA0119, SEQ ID NO:14 (protein, listed as Staphylococcus aureus)
chain: MKKLATVGSLIVTSTLVFSSMPFQNAHADTTSMNVPNKQSQNVQNHRPYGGVVPQGMTQAQYTELEKTLPQLSAGSNMQDYNMKLYDATQNIADKYNVIITTNVGVFKPHAVRDMNGHALPLTKDGNFYQTNVDANGVNHGGSEMVQNKTGHMSQQDHMNQNTHMNQQPQIQQGHMQSSNHQMMSPKANMHSSNHQMNQSNKKVLPAAGESMTSSILTASIAALLLVSGLFLAFRRRSTNK
B1 was tested, and the “bacterial clearance (percent of animals cleared of S. aureus)” value was 40%.

— USRE48137E1, “Multivalent vaccine protection from Staphylococcus aureus infection” (UNIVERSITY OF MARYLAND, BALTIMORE, priority 2012, dated 2020)
